What was measured:
Test in all cases: fluorescence anisotropy
A1-FL (hnRNPA1) = A1-FL (hnRNPA1) (UniProt P09651 1-251+304-372, internal_change)
A1-RRM = A1-RRM (UniProt P09651 14-184)
A1-LCD = A1-LCD (UniProt P09651 186-251+304-372, internal_change)

Measured: binding result

B1: fl-RNA44 (ssRNA)
RNA: GGGCCCCCGGGUACCGAGCUGCUAAUCAAAACAAAACAAAAGCU
binds: all assays above
